# IntAct's records for PubMed 18715871
# B1: Serine/threonine-protein phosphatase 4 catalytic subunit (Homo sapiens), P60510 (parent)
# chain: MAEISDLDRQIEQLRRCELIKESEVKALCAKAREILVEESNVQRVDSPVTVCGDIHGQFYDLKELFRVGGDVPETNYLFMGDFVDRGFYSVETFLLLLALKVRYPDRITLIRGNHESRQITQVYGFYDECLRKYGSVTVWRYCTEIFDYLSLSAIIDGKIFCVHGGLSPSIQTLDQIRTIDRKQEVPHDGPMCDLLWSDPEDTTGWGVSPRGAGYLFGSDVVAQFNAANDIDMICRAHQLVMEGYKWHFNETVLTVWSAPNYCYRCGNVAAILELDEHLQKDFIIFEAAPQETRGIPSKKPVADYFL
# partner: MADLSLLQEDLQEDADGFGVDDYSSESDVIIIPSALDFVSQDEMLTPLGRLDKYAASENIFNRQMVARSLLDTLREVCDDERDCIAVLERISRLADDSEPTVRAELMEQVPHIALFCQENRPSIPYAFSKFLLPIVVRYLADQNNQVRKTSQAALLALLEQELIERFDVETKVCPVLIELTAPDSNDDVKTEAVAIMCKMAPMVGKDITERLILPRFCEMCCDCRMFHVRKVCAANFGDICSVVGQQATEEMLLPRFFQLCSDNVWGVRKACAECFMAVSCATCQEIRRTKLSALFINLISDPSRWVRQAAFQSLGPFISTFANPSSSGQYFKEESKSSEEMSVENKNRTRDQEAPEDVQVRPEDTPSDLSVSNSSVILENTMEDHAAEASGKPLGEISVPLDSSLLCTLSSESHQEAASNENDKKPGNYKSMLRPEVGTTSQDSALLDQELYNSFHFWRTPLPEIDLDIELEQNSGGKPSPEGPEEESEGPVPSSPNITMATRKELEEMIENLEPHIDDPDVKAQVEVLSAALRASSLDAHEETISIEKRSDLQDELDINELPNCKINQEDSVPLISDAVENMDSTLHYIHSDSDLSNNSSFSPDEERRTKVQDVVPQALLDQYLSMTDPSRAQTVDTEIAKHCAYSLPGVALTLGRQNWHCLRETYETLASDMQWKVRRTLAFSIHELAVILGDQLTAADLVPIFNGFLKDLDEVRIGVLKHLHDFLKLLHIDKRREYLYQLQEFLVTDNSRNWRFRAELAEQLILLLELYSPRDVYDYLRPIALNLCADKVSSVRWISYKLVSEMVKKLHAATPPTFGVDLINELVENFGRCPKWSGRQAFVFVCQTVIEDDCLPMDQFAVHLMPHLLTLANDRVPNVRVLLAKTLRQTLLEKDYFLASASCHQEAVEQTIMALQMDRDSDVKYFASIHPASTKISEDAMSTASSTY
# B2: Serine/threonine-protein phosphatase 4 catalytic subunit (Homo sapiens), P60510 (parent)
# chain: B1 chain
# partner: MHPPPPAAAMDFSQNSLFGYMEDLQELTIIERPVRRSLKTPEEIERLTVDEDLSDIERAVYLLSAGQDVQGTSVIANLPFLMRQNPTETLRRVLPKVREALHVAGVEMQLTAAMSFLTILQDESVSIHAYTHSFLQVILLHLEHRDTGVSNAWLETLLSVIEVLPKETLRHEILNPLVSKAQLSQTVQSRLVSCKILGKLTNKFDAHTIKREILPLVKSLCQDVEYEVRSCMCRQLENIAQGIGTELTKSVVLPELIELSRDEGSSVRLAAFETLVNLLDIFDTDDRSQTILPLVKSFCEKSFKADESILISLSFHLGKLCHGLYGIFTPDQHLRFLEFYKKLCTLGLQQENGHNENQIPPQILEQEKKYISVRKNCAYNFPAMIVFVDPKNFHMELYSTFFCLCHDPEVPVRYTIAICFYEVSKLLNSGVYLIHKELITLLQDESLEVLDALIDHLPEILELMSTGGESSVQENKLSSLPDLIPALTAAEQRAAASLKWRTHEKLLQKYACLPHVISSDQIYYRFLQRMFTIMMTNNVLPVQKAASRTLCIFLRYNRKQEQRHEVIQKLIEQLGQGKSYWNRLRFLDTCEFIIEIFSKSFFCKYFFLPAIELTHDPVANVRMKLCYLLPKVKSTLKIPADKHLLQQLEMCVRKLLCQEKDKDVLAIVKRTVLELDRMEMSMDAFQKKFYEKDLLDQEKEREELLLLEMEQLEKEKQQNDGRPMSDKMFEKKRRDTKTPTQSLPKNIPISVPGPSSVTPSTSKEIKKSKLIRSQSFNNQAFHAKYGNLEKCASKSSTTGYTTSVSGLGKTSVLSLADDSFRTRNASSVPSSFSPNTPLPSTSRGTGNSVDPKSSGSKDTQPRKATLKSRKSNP
# B3: Serine/threonine-protein phosphatase 4 regulatory subunit 4 (Homo sapiens), Q6NUP7 (parent)
# chain: B2 partner
# partner: B1 chain
# B4: Serine/threonine-protein phosphatase 4 catalytic subunit (Homo sapiens), P60510 (parent)
# chain: B1 chain
# partner: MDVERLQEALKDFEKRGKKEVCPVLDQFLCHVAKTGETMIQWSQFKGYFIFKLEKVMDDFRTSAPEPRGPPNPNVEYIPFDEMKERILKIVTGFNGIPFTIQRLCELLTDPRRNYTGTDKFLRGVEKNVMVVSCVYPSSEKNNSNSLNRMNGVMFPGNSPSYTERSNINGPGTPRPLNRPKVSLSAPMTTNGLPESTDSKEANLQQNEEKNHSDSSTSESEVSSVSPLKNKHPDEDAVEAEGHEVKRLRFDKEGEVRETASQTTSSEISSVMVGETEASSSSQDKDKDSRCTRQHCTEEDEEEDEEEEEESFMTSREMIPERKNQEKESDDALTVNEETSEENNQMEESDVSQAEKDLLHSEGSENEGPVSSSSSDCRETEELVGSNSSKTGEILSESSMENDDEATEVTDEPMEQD
# Variants of: B1
# Settings: with pp4r1_human PPP4R1, Q8TF05
row,effect of a mutation on the interaction,Variant
1,disrupting interaction,E39K
2,decreasing interaction,E277K
3,disrupting interaction,N76D
4,disrupting interaction,R107E
5,disrupting interaction,E64K

# Variants of: B2
# Settings: with pp4r4_human PPP4R4, Q6NUP7
row,effect of a mutation on the interaction,Variant
1,decreasing interaction,N76D
2,disrupting interaction,E64K
3,decreasing interaction,R107E
4,decreasing interaction,E39K
5,disrupting interaction,E277K

# Variants of: B3
# Settings: with pp4c_human PPP4C
row,effect of a mutation on the interaction,Variant
1,disrupting interaction,R501D
2,disrupting interaction,V618D
3,disrupting interaction,V618A

# Variants of: B4
# Settings: with pp4r2_human PPP4R2, Q9NY27
row,effect of a mutation on the interaction,Variant
1,disrupting interaction,E39K
2,decreasing interaction,E277K
3,disrupting interaction,R107E
4,disrupting interaction,N76D
